Results from the nanobody polyreactivity screen of Harvey et al. (2022).

assay: yeast display, Sf9 membrane polyspecificity reagent, FACS + sequencing; frameworks hold sequencing errors
Outline: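 Polyreactivity labels are assigned by the sorting gate from which each nanobody was recovered. The gates were low and high (top ~1%), set on anti-HA fluorescence for expression and streptavidin fluorescence for reagent binding. Before sorting, galactose-induced (36–48 hours) yeast display cells were stained for 1 hour at 4 °C with 10% biotinylated, detergent-solubilized Sf9 membrane reagent.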

Sequence	polyreactivity (PSR sort gate)
QVQLVESGGGLVQAGGSLRLSCAASGSIFKYYAMGWYRQAPGKERELVAAITSGVSTYADSVKGPFTISRDNAKNTVYLQMNSLKPEDTAVYYCAVRVTGPRGDYWGQGTQVTVSS	low polyreactivity
QVQLVESGGGLVQAGGSLRLSCAASGSTFGPYAMGWYRPAPGKERELVAAITSSGGTTYYADSVKGRFTISRDNAKNTVYLQMNSLKPEDTAVYYCAVDYYGKVGDDYWGQGTQVTVSS	low polyreactivity
QVQLVESGGGLVQAGGSLRLSSAASGRIFTYYAMGWYRQAPGKERELVATISRRGGSTYYADSVKGRFTISRDNAKNTVYLQMNSLKPEDTAVYYCNRTYYGYDYWGHGTQVTVSS	high polyreactivity
QVHLVESGGGLVQAGGSLRLSCAASGNIFYPNAMGWYRQAPGKERELVAAISSSGGSTYYADSVKGRFTISRDNAKNTVYLQMNSLKPEDTAVYYCNAYRQYRYDYWGQGTQVTVSS	low polyreactivity
QVQLVESGGGLVQAGGSLRLSCAASGSTFNKYTMGWYRQAPGKERELVAAITSGDSTYYADSVKGRFTISRDNAKNTVYLQMNSLKPEDTAVYYCAKSLRAYRHVIYGKPFYSWGQGTQVTVSS	low polyreactivity
QVQLVESGGGLVQAGGSLRLSCAASGRTLTSYAMGWYRQAPGKERELVARISNGGNTKYADSVNGRFTISRDNAKNTVYLQMNSLKPEDTAVYYCAADYSYYHGPSRHKHDYWGQGTKVTVSS	low polyreactivity
QVQLVESGGGLVQAGGSLRLSCAASGSTFRPYVMGWSRQAPGKERELVAAISWRGGTTYYADSVKGRFTISRDNAKNTVYLQMNSQKPEDPAVYYCAARGDQGVPVARRYDYWGQGTQVTVSS	high polyreactivity
QDQLVESGGGLVQAGGSLRLSCAASGSIFWYYGMGWYRQAPGKERELVAAISSGGSTNYADSVKGRFAISRDNAKNTVYLQMNSLKPEDTAVYYCAVRFTFPRYPASYSRYYYWGQGTQVTVSS	high polyreactivity
QVQLVESGGGLVQAGGSLRLSCAASGSNFSDYAMGWYRQAPGKEREFVATITWSGTSTYYADSVKGRFTISRDNAKNTVYLQMNSLKAEDTAVYYCAAELLFWLGLVPGTIFDEFDYWGQGTQVTVSS	low polyreactivity
QVQLVESGGGLVQAGGSLRLSCAASGITIAGYAMGWYRQAPGKERELVAAISSRGSSTRYADSVKGRFTISRDNAKNTVYLQMNSLKPEDSAVYYCAARNEYWGQGTQVTVSS	high polyreactivity
QVQLVESAGGLVQAGGSLRLSCAASGSLFSLYAMGWYRQAPGKERELVAAITQSGGTKFYADSVKGRFTISRDNAKNTVYLQMNRLKPEDTAVYYCAAEWYRCYVPLGVAGEYDYWGQGTQVTVSS	low polyreactivity
QVQLVESGVGLVQAGGSLRLSCAASGRNFAYYAMGWYRQAPGKERELVAAISSGGTTNYADSVKGRFTISRDNAKNTVYLQMNSLKPDDTAVYDCNADGWRRSRQYYYWGQGTQVTVSS	low polyreactivity
QVQLVESGGGLVQAGGSLRLSCAASGGIFLGNAMGWYRQAPGKERELVAAISWSGGSTYYADSVKGRFTISRDNAKNTVYLQMNSLKPEDTAVYYCAAAWNRGKYNYYYWGQGTQVTVSS	high polyreactivity
QFQLVESGGVLVQAGGILRLSCAASGSIFIDNAMGWYRQEPGKERDLVAAITVRGASTNYADSVKGRFTISRDNAKNTVYLQMNSLKPEDTAVYYCNAVGLRSPWHQDYLIRYDYWGQGTQVTVSS	low polyreactivity
QVQLVESGGGLVQAGGSLRLSCSASGSILVRYAMGWYRQSPGKERELVAAITSGGSTYADSVKGRFTISRDNAKNTVYLQMNSLKPEDTAVYYCARDYFNREAFDYWGQGTQVTVSS	low polyreactivity
QVQLVESGGGLVQAGGSLRLSCAASGLTFQKYAMGWYRQAPGKERELVAAISRGGDTYYADSVKGRFTISRDNAKNTVYLQMNSLKPEDTAVYYCAASNYLYRYSHYGYWGQGTQVTVSS	high polyreactivity
QVQLVESGGGLVQAGGSLRISCAASGRIFGINSMGWYRQAPAKERELVAAMSRGGTTNYADSVKGRFTISRDNAKNTVYLQMNSLKPEDTAVYYCNAVGFYAPNTFDYWGQGTQVTVSS	high polyreactivity
QVQLVESGGGLVQAGGSLRLSCAASGLIFVKNTMGWYRQAPGKERELVAGISQRGGSTYYADSVKGRFTISRDNAKNSVYLQMNILKPEDTAVFYCAAYSRTFEGHRGGYWGQGTQVTVSS	high polyreactivity
QVQLVESGGGLVQAGGSLRLSCAASGIIFRYYAMGWYRQAPGKERELVARITSRAGRTYYADSVKGRFTISRDYAKYTVYLQMNSLKPEDTAVYYCAARLYGRYGYWGQGTQVTVSS	high polyreactivity
QVQLVESGGGLVQAGGSLRLSCAASGRIFTQYTMGWYRQAPGKERELVAAISRGGGSTYYADSVKGRFTISRDNAKNTVYLQMNSLKPEDTAVYYCAAIRREVVAGDYWGQGTQVTVSS	high polyreactivity
QVQLQESGGGQVQAVGSLRLSCAPSGSNFVSDTMCWYRHAPGKDRELVASIGRGSTTNHADSVKGRFTISRDNAKNIVYLLMNSLKPEDTAVYYCAALESYGKYHGYWGQGTQVTVSS	low polyreactivity
QVQLVESGVGLVQAGGSLRLSCAASGRTFGYYAMGWYRLAPGKERELVAAISSGGSTNYADSVKGRFTISRDNAKNTVYLQMNSLKPEDTAVYYCAAKAWYYPGRRNYYQYYYWGQGTQVTVSS	high polyreactivity

Sequence	polyreactivity (PSR sort gate)
QVQLVVSGGGLVQAGGSLRLSCAASGSFFPIYAMGWYRQAPGKERELVAAITSGGSTNYADSVKGRFTISRDNAKNTVYLQMNSLKPEDTAVYYCAAGGPDHADRYEYWGQGTQVTVSS	low polyreactivity
QVQLVDSGGGLVQAGCSLRISCAASGSIYTTYAMGWYRQAPGKERELVAALTRSGGRTYYADSVKGRFTISRDNAKYTVYLQMTSLKPEDTAVDDCNAYGYRTWWDDFKLDYWGQGTQVTVSS	high polyreactivity
QVQLVESGGGLVQAGGSLRLSCAASGRTFSKYAMGWYRQAPGKERELVASISSDGRTYYADSVKGRFTISRDNAKNTVYLQMNRLKPEDTAVYYCAAKEWYFPTWYTYYERDYWGQGTQVTVSS	high polyreactivity
QVQLVESGGGLVQAGGSLRLSCAASGSTFGLYAMGWYRQAPGKERELVAAISSGGSTYYADSVKGRFTISRDNAKNTVYLQMNSLKPEDTAVYYCATGYWAYTIEYYYWGQGTQVTVSS	low polyreactivity
QVQLVESGGGLVQAGGSLRLSCAASGRIFRLYVMGWYRQAPGKERELVARIRIRDSNTYYADSVKGRFTISRDNAKHTVYLQMNSLKPEDTAVYYCAVVATYVYSKYDYWGQGTQVTVSS	low polyreactivity
QVQLVESGGGLVQAGGSLRLSCAASGNTFPLNAMGWYRQAPGKERDLVAGISRTGGSTYYADSVKGRFTISRDNAKNTVYLQMNSLKPEDTAVYYCAAQSRYWVVRMDYWGQGTQVTVSS	high polyreactivity
QVQLVESGGGLVQAGGSLRLSCAASGITFVPYAMGWDRQAPGKERELVAAISSSGGSTYYADSVKGRFTISRDNAKNTVYLQMNSLKPEDTAVYYCNVRTHSYIGMDYWGQGTQVTVSS	low polyreactivity
QVQLVESGAGLVQAGGSLRLSCAASGFTFKSNAMGWYRQAPGKERELVATISWGGASTSYADSVKGRFTISRDNAKNNVYLQMNSLKPEDTAVYYCKVRAQRRHGGYDHWGLGTQVTVSS	low polyreactivity
QVQLVESGGGLVQAGGSLRLSCAASGRIFNQYAMGWYRQAPGKERELVAAISRRGGSTYYADSVKGRFTISRDNAKNTVYLQMNSLKPEDTAVYYCAAVGGYASYFHLYYYWGQGSQVTVSS	high polyreactivity
QVQLVESGGGLVQAGGSLRLSCAASGGIFYYYTMGWYRQAPGKERELVAAINWSGGSTYYADSVKGRFTISRDNAKNTVYLQMNSLKPEDTAVYYCNAVYRHPVTYGYWGQGTQVTVSS	high polyreactivity
QVQLVESGGGLVQAGGSLRLSCAASGRIFSPYAMGWYRQAPGKERELVAAITWSGTSTSYADSVKGRFTISRDNAKNTVYLQMNRLKPEDTAVYYCNAVYRSWDRYTFYWYVSNDYWGQGTQVTVSS	low polyreactivity
QVQLVETGRGLVQAGGSLRLSCAASGSTFGSYAMGWYRPAPGKEREFVATISRSGGRTYYAASVKGRFTISRDNAKNTVYFQMNSLKPEDTAVYYCATDRRYWIGYDYWGQGTQVTVSS	high polyreactivity
QVQLVESGGGLVQAGGSLRLSCAASGRTFYEYAMGWYRQAPGKERELVAGITSGGSTNYADSVKGRFTISRDNAKNTVYLQMNSLKPEDTAVYYCDASYWGYEYDYWGQGTQVTVSS	low polyreactivity
QVQLVESGGGLVQAGGSLRLSCAASGSIFYSYAMGWYRQAHGKERELVAAITSGDITYYADSVKGRFTISRDNAKNTVYLQMNSLKPEDTAVYYCAAESYAWWDKQFLYRYDYWGQGTQVTVSS	low polyreactivity
QVQLVESGGGLVQAGCSLRLSCAASGSIFRYYAMGWYRQAPGKERELVAAITSSGGSTYYADSVKGRFTISRDNSKNTVYLQMNSLKPEDTAVYYCNARHVRYSRRENDYWGQGTQVTVSS	high polyreactivity
QVQLVESGGGLVQAGGSLRLSCAASGGTFWLYTMGWYRQAPGTERELVAAITKSGGSTYYADSVKGRFTISRDNAMNTVYLQMNSLKPEDTAVYYCAARYSVYRDGYYWGQGTQVTVSS	high polyreactivity
QVQLVESWGGLVQAGGSLRLSCAASGITFSSNAMGWSRQAPGKERELVAAINSGDSTNYADSVKGRFTISRDNAKNTVYLQMNSLKPEDTAVYDCAKRYRRRFNYWGQGTQVTVSS	high polyreactivity
QVQLVESGGGLVQAGGSLRLSCAASGRIFFTYVMGWYRQAPGKEREFVAAITFSDGTTYYADSVKGRFTISRDNAKNTVYLQMNSLKPEDTAVYYCNTDSFYGFVYPWTISSEVDYWGQGTQVTVSS	low polyreactivity
QVQLVESGGGLVQAGGSLRISCAASGIIFRLNAMGWYRQAPGKERELVAAIRRRGGSTYNADSVKGRFTISRHNAKNTVYLQMNSLKPEDTAVYYGAKDPHGSDFGYWGQGTQVTVSS	low polyreactivity
QVQLVESGGGLVQAGGSLRLSCAASGSIFKRYTMGWYRQAPGKERELVASIRSRAGNTYYADSVKGRFTISRDNAKNTVYLQMNSLKPEDTAVYYCAVSAWGYYRTSYGYWGQGTQVTVSS	high polyreactivity
QVQLVESGGGLVQAGGSLRLSCAASGSTFGSYAMGWYRQAPGKERELVAAIRRGGSTTYADSVKGRFTISRDNAKNTVYLQMYSLKPEDTAVYYCAAPELNEGLPLDYWGQGTQVTVSS	low polyreactivity
